The values that follow come from patent US20180346592A1.

For experiment [1], the target named is GPC3 on the surface of hepatic cancer cell lines (SK-Hep1-GPC3 transfectant, HepG2, Huh7, Hep3B, SNU398) (human) (UniProt P51654). Briefly: FACS, SK-Hep1-GPC3 #9 cells; upper right panel. A general note: Flow cytometry measures light scatter and fluorescence of single cells or particles in a stream.
For experiment [2] the target is unchanged. Briefly: FACS, SK-Hep1-GPC3 #9 cells; lower left panel.
The target is the same in experiment [3]. Briefly: FACS, HepG2 cells; lower right panel.
The target is the same in experiment [4]. Description: FACS, SK-Hep1-GPC3 cells; lower right panel.

For the substance hIgG (antibody), the Mean, FL2-H stood at 4.76 in experiment [1], 5.79 in experiment [2], 2.87 in experiment [3] and 3.49 in experiment [4].
